From article PMC5679434 (Nature methods, 2017)

Target: Thermoplasma acidophilum 20S proteasome α-subunit (Thermoplasma acidophilum, UniProt P25156 1-233)
Assay: cryo-EM structure

Sequence of Thermoplasma acidophilum 20S proteasome α-subunit (P25156 whole entry): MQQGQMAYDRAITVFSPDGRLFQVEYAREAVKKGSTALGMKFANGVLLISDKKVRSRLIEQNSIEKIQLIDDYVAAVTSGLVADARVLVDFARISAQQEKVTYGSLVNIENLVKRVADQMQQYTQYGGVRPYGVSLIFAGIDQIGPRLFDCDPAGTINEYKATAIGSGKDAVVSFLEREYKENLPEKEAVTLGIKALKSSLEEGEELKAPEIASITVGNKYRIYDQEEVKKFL

B1: Thermoplasma acidophilum 20S proteasome β-subunit (natural protein, UniProt P28061 9-211, looked up)
chain: TTTVGITLKDAVIMATERRVTMENFIMHKNGKKLFQIDTYTGMTIAGLVGDAQVLVRYMKAELELYRLQRRVNMPIEAVATLLSNMLNQVKYMPYMVQLLVGGIDTAPHVFSIDAAGGSVEDIYASTGSGSPFVYGVLESQYSEKMTVDEGVDLVIRAISAAKQRDSASGGMIDVAVITRKDGYVQLPTDQIESRIRKLGLIL
B1: binds.
